Results from IntAct's records for PubMed 21300063.

B1: Alsin (Homo sapiens), Q96Q42 (parent)
chain: MDSKKRSSTEAEGSKERGLVHIWQAGSFPITPERLPGWGGKTVLQAALGVKHGVLLTEDGEVYSFGTLPWRSGPVEICPSSPILENALVGQYVITVATGSFHSGAVTDNGVAYMWGENSAGQCAVANQQYVPEPNPVSIADSEASPLLAVRILQLACGEEHTLALSISREIWAWGTGCQLGLITTAFPVTKPQKVEHLAGRVVLQVACGAFHSLALVQCLPSQDLKPVPERCNQCSQLLITMTDKEDHVIISDSHCCPLGVTLTESQAENHASTALSPSTETLDRQEEVFENTLVANDQSVATELNAVSAQITSSDAMSSQQNVMGTTEISSARNIPSYPDTQAVNEYLRKLSDHSVREDSEHGEKPVPSQPLLEEAIPNLHSPPTTSTSALNSLVVSCASAVGVRVAATYEAGALSLKKVMNFYSTTPCETGAQAGSSAIGPEGLKDSREEQVKQESMQGKKSSSLVDIREEETEGGSRRLSLPGLLSQVSPRLLRKAARVKTRTVVLTPTYSGEADALLPSLRTEVWTWGKGKEGQLGHGDVLPRLQPLCVKCLDGKEVIHLEAGGYHSLALTAKSQVYSWGSNTFGQLGHSDFPTTVPRLAKISSENGVWSIAAGRDYSLFLVDTEDFQPGLYYSGRQDPTEGDNLPENHSGSKTPVLLSCSKLGYISRVTAGKDSYLALVDKNIMGYIASLHELATTERRFYSKLSDIKSQILRPLLSLENLGTTTTVQLLQEVASRFSKLCYLIGQHGASLSSFLHGVKEARSLVILKHSSLFLDSYTEYCTSITNFLVMGGFQLLAKPAIDFLNKNQELLQDLSEVNDENTQLMEILNTLFFLPIRRLHNYAKVLLKLATCFEVASPEYQKLQDSSSCYECLALHLGRKRKEAEYTLGFWKTFPGKMTDSLRKPERRLLCESSNRALSLQHAGRFSVNWFILFNDALVHAQFSTHHVFPLATLWAEPLSEEAGGVNGLKITTPEEQFTLISSTPQEKTKWLRAISQAVDQALRGMSDLPPYGSGSSVQRQEPPISRSAKYTFYKDPRLKDATYDGRWLSGKPHGRGVLKWPDGKMYSGMFRNGLEDGYGEYRIPNKAMNKEDHYVGHWKEGKMCGQGVYSYASGEVFEGCFQDNMRHGHGLLRSGKLTSSSPSMFIGQWVMDKKAGYGVFDDITRGEKYMGMWQDDVCQGNGVVVTQFGLYYEGNFHLNKMMGNGVLLSEDDTIYEGEFSDDWTLSGKGTLTMPNGDYIEGYFSGEWGSGIKITGTYFKPSLYESDKDRPKVFRKLGNLAVPADEKWKAVFDECWRQLGCEGPGQGEVWKAWDNIAVALTTSRRQHRDSPEILSRSQTQTLESLEFIPQHVGAFSVEKYDDIRKYLIKACDTPLHPLGRLVETLVAVYRMTYVGVGANRRLLQEAVKEIKSYLKRIFQLVRFLFPELPEEGSTIPLSAPLPTERKSFCTGKSDSRSESPEPGYVVTSSGLLLPVLLPRLYPPLFMLYALDNDREEDIYWECVLRLNKQPDIALLGFLGVQRKFWPATLSILGESKKVLPTTKDACFASAVECLQQISTTFTPSDKLKVIQQTFEEISQSVLASLHEDFLWSMDDLFPVFLYVVLRARIRNLGSEVHLIEDLMDPYLQHGEQGIMFTTLKACYYQIQREKLN

Variants of: B1
Settings: with rab5a_human RAB5A

| effect of a mutation on the interaction | Variant |
| --- | --- |
| increasing interaction | G540E |

Variants of: B1
Settings: with eea1_human EEA1, Q15075
Chain of eea1_human EEA1, Q15075 (Q15075 whole entry): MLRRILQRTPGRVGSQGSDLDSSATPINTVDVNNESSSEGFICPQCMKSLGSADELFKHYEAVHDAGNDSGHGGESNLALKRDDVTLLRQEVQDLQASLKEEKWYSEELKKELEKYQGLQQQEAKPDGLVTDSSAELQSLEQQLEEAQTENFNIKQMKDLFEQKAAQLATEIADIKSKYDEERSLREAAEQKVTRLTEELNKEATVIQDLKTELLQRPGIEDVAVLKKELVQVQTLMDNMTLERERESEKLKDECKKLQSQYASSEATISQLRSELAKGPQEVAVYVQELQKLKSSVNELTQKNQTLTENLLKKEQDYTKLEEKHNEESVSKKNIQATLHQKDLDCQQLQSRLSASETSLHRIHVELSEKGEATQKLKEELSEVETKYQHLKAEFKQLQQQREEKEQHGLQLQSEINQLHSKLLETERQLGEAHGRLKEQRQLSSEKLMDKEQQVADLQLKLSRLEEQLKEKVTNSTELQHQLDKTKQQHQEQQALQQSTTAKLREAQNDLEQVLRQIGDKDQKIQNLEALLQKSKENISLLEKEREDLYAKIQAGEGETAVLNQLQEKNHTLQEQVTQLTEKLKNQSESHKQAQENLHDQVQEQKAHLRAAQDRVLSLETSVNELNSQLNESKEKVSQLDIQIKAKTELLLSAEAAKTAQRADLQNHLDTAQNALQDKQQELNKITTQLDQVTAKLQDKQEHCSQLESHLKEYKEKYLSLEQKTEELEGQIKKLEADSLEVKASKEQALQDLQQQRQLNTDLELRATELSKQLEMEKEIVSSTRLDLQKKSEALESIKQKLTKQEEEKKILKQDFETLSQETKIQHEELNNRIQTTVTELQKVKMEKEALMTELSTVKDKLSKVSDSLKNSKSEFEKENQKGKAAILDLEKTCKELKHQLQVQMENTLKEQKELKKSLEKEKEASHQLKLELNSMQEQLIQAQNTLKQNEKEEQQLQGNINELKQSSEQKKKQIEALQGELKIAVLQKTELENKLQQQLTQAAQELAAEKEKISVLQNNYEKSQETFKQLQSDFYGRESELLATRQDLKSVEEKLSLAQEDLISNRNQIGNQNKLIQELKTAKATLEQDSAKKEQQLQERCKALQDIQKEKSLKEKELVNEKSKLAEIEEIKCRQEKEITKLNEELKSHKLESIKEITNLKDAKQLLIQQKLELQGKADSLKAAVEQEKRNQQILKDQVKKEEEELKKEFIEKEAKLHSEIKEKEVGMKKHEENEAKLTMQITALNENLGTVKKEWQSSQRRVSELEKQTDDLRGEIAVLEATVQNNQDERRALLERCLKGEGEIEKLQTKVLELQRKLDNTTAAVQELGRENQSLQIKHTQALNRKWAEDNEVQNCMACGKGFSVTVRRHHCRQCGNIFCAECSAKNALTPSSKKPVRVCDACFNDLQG

| effect of a mutation on the interaction | Variant |
| --- | --- |
| disrupting interaction | G540E |

Variants of: B1
Settings: with eea1_human EEA1, Q15075
Remark: another data set of the same source

| effect of a mutation on the interaction | Variant |
| --- | --- |
| disrupting interaction | P1603A |

Variants of: B1
Settings: with rab5a_human RAB5A
Remark: another data set of the same source

| effect of a mutation on the interaction | Variant |
| --- | --- |
| increasing interaction | C157Y |

Variants of: B1
Settings: with eea1_human EEA1, Q15075
Remark: another data set of the same source

| effect of a mutation on the interaction | Variant |
| --- | --- |
| disrupting interaction | C157Y |
